Consider two molecules from US7582437 (JAPAN SCIENCE AND TECHNOLOGY AGENCY, dated 2009).

Assay [1] concerns the target T1, human TLR3 (human, UniProt O15455 24-904).
T1 construct: whole, on cells; also called human Toll-like receptor 3
The experiment in a line: stated in the description with reference to the Examples (reporter gene assays). For orientation: Reporter assays use an easily measured gene product as a stand-in for the process of interest.

The target in assay [2] is T1, human TLR3. Kind of assay: stated in the description with reference to the Examples (dominant-negative effect in reporter gene assays). How it is done:
By using the gene transfecting cationic lipid "Lipfectamine 2000" reagent (made by Gibco), HEK293 cells in 24-well plates were transfected with (i) 0.1 µg of luciferase-linked NF-κB reporter gene (made by Stratagene) (c.f. FIG. 13(b)) or 0.1 µg of p125.luc reporter plasmid (c.f. FIG. 13(a)), (ii) TICAM-1 TIR (0.1 ng and 10 ng) or a plasmid (0, 0.2 µg, 0.6 µg), the plasmid encoding TICAM-1 TIR mutant TIR P434H of TICAM-1 TIR, and (iii) empty vector, TLR2 (0.1 µg), or TLR3 (0.6 µg).
A total amount (0.8 µg to 1.0 µg) of transfected DNA was adjusted by adding the empty vectors. Moreover, plasmid vector pCMVβ (made by Clontech; 5 ng) was used as an internal control.
Twenty four hours after the transfection, the cells were stimulated for 6 hours with 100 nM of MALP-2 (TLR2 stimulation) or 10 µg/ml of poly (I:C) (TLR3 stimulation), and then lyzed with the lysis buffer (made by Promega). Luciferase activity that indicate the interferon β activation or NF-κB activation caused by stimulation after the transfection in thus prepared lysates were measured according to the manufacturer's instructions. This experiment was repeated three times. Representing values thereof were considered as measurement values. Level of the interferon β activation is illustrated in FIG. 13(a), and level of the NF-κB activation is illustrated in FIG. 13(b).

B1: human TICAM-1 TIR (mutant made of almost only the TIR domain, amino acids 387 to 556 of human TICAM-1) (other)
chain: ESSSEQKFYNFVILHARADEHIALRVREKLEALGVPDGATFCEDFQVPGRGELSCLQDAIDHSAFIILLLTSNFDCRLSLHQVNQAMMSNLTRQGSPDCVIPFLPLESSPAQLSSDTASLLSGLVRLDEHSQIFARKVANTFKPHRLQARKAMWRKEQDTRALREQSQHL
notes: Expressed in HEK293 cells from pEFBOS; also called TIR of TICAM-1; pEFBOS-TICAM-1 (TIR)
On to B1, for which the binding result with human TLR3 [1] was “binds”.

B2: dominant-negative mutant P434H of human TICAM-1 TIR (other)
chain: ESSSEQKFYNFVILHARADEHIALRVREKLEALGVPDGATFCEDFQVHGRGELSCLQDAIDHSAFIILLLTSNFDCRLSLHQVNQAMMSNLTRQGSPDCVIPFLPLESSPAQLSSDTASLLSGLVRLDEHSQIFARKVANTFKPHRLQARKAMWRKEQDTRALREQSQHL
notes: Expressed in HEK293 cells from pEFBOS with an initiator Met; also called TIR P434H
Consider B2, for which, in the assay with human TLR3 [2], the binding result was “binds”.
